Measurements taken from patent US20140120555A1 (PIERRE FABRE MEDICAMENT, published 2014).
Where a chain is given by its changes, count along the chain named. In names and notes the source's numbering stands.

Legend:
[1] = target: T1, Recombinant mouse FcγRI [CD64], Gln25-Pro297 with C-terminal 6-His tag (mouse, UniProt P26151 25-297); experiment: SPR (Biacore X), Mab on CM4 chip, m-FcγRI as analyte, heterogeneous ligand model, minor component; minor component (19%), lower end
T1 construct: range 25-297; Soluble form bought from R&D Systems; also called m-FcγRI
T1 sequence: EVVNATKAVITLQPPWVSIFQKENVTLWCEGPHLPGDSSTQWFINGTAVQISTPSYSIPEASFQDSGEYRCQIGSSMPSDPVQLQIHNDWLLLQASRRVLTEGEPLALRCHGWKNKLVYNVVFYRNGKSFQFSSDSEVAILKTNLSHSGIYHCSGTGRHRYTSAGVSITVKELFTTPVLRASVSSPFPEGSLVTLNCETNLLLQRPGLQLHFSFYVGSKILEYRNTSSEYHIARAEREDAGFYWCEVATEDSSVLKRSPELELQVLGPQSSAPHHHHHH
Protocol: (§1) 2017 RU of c515H7 Mab were immobilized using the amine coupling kit chemistry on the second flowcell (FC2) of a CM4 sensorchip. The first flowcell (FC1) activated by NHS and EDC mixture and des-activated by ethanolamine served as the reference surface to check and subtract the non specific interaction between the analyte (Fc gamma receptors) and the sensorchip matrix.
(§2) The kinetic experiments were carried out at 25° Celsius at a flow rate of 30 μl/min. The HBS-EP buffer was used either as the running buffer or for the preparation of analyte solutions. The analyte solutions were injected during 90 seconds (association phase) with a 90 seconds delay (dissociation phase). An injection of running buffer as analyte was used as a double reference. All the sensorgrams were corrected by this double reference sensorgram.
According to this model, the c515H7 Mab Fc domain may be regarded as a mixture of two components.

[2] = target: T2, Recombinant mouse FcγRIII [CD16], Ala31-Thr215 with C-terminal 10-His tag (mouse, UniProt P08508 31-215); experiment: SPR (Biacore X): m-FcγRIII injected over c515H7 Mab immobilized on a CM4 sensorchip; heterogeneous ligand model, major component (99%)
T2 construct: Soluble form bought from R&D Systems; also called m-FcγRIII
T2 sequence: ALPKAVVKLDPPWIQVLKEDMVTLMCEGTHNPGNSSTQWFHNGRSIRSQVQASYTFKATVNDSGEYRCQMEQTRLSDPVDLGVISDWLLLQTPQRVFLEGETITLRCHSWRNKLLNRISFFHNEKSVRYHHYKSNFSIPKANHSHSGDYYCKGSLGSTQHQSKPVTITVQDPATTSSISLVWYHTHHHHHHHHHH
Protocol: as §1, §2
(§3) After each injection of the analyte, the sensorchip was regenerated by injection of 20 mM NaOH, 75 mM NaCl solution.

[3] = target: T2, Recombinant mouse FcγRIII [CD16], …; experiment: SPR (Biacore X): m-FcγRIII injected over c515H7 Mab immobilized on a CM4 sensorchip; Langmuir model
Protocol: as §1, §2, §3

[4] = target: T3, Recombinant human FcγRIIIA variant V [CD16a], Gln17-Gln208 with C-terminal 6-His tag (human, UniProt P08637 17-208); experiment: SPR (Biacore X): h-FcγRIIIA injected over hz515H7VH1D76NVL2 Mab immobilized on a CM4 sensorchip; heterogeneous ligand model, major component (79%)
T3 construct: range 17-208; 'variant V' is given without a position, so no substitution is written; also called h-FcγRIIIA
T3 sequence (P08637 other isoform, or with tags, fused parts or gaps mutant limits assumed, form in doubt): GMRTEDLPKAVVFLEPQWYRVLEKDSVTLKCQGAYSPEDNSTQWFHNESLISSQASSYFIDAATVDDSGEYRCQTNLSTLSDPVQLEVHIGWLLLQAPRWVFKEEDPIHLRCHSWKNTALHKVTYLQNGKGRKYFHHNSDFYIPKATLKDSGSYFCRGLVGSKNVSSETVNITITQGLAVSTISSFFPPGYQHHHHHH
Protocol: as §1, with “1964” for “2017”, “hz515H7VH1D76NVL2” for “c515H7”
as §2
Sensorgrams obtained with h-FcγRIIIA [FIG. 16] were clearly not fitted by the Langmuïr model (Chi2/Rmax>20%). […] According to this model, the hz515H7VH1D76NVL2 Mab Fc domain may be regarded as a mixture of two components. […] According to the literature, the heterogeneity observed with h-FcγRIIIA was probably linked to the glycosylation heterogeneity on the Mab Fc domain.

[5] = target: T3, Recombinant human FcγRIIIA variant V …; experiment: SPR (Biacore X): h-FcγRIIIA injected over hz515H7VH1D76NVL2 Mab immobilized on a CM4 sensorchip; Langmuir model
Protocol: as §1, with “1964” for “2017”, “hz515H7VH1D76NVL2” for “c515H7”
as §2
(§4) After each injection of the analyte, the sensorchip was regenerated by injection of either 20 mM NaOH solution after h-FcγRI and m-FcγRIII or 10 mM NaOH after h-FcγRIIIA and m-FcγRI.

[6] = target: T4, Recombinant human FcγRI [CD64], Gln16-Pro288 with C-terminal 6-His tag (human, UniProt P12314 16-288); experiment: SPR (Biacore X): h-FcγRI injected over hz515H7VH1D76NVL2 Mab immobilized on a CM4 sensorchip; Langmuir model
T4 construct: range 16-288; Soluble form bought from R&D Systems; also called h-FcγRI
T4 sequence (P12314 other isoform, or with tags, fused parts or gaps limits assumed): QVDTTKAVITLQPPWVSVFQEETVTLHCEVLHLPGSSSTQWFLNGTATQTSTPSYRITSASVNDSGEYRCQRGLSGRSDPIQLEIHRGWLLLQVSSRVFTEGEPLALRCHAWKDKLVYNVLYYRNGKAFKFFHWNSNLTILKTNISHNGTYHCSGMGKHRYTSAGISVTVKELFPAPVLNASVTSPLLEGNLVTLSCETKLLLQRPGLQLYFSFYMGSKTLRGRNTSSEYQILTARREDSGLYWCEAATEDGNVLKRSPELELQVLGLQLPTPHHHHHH
Protocol: The experiments were carried out using a Biacore X device. The soluble forms of the four Fc […]gamma receptors used in this study were purchased from R&D Systems: […]

[7] = target: T2, Recombinant mouse FcγRIII [CD16], …; experiment: SPR (Biacore X): m-FcγRIII injected over hz515H7VH1D76NVL2 Mab immobilized on a CM4 sensorchip; heterogeneous ligand model, minor component (34%)
[8] = target: T1, Recombinant mouse FcγRI [CD64], …; experiment: SPR (Biacore X): m-FcγRI injected over hz515H7VH1D76NVL2 Mab immobilized on a CM4 sensorchip; heterogeneous ligand model, minor component (18%)
Protocol: as §1, with “1964” for “2017”, “hz515H7VH1D76NVL2” for “c515H7”
as §2, §4

B1: chimeric antibody c515H7 (antibody, human IgG1, kappa)
heavy: not shown
light: DIVMSQSPSSLAVSAGEKVTMSCKSSQSLFNSRTRKNYLAWYQQKPGQSPKLLIYWASARDSGVPARFTGSGSETYFTLTISRVQAEDLAVYYCMQSFNLRTFGGGTKLEIKRTVAAPSVFIFPPSDEQLKSGTASVVCLLNNFYPREAKVQWKVDNALQSGNSQESVTEQDSKDSTYSLSSTLTLSKADYEKHKVYACEVTHQGLSSPVTKSFNRGEC
notes: Human IgG1/kappa constant domains; also called c515H7 Mab; chimeric 515H7
Q: Which results are given for B1?
A: Kd [1]: 32 to 37 nM; Kd [2]: 20.9 nM; koff [2]: 0.00446 s⁻¹; kon [2]: 213000 M⁻¹ s⁻¹; Kd [3]: 20.9 nM; koff [3]: 0.00442 s⁻¹; kon [3]: 211000 M⁻¹ s⁻¹

B2: humanized antibody Hz515H7 VH1 D76N VL2 (antibody, human IgG1, kappa)
heavy: not shown
light: B1 light with S5T, A15L, K18R, V19A, G105Q, L109V
notes: IgG1/kappa; also called hz515H7VL2; hz515H7-1
Q: Which Kd [4] does the source give for B2 here?
A: 325 nM

Q: And the koff [4]?
A: 0.187 s⁻¹

Q: What about the kon [4] of the same binder?
A: 575000 M⁻¹ s⁻¹

Q: And the Kd [5]?
A: 75.2 nM

Q: What about the koff [5] of the same binder?
A: 0.0351 s⁻¹

Q: What about the kon [5] of the same binder?
A: 467000 M⁻¹ s⁻¹

Q: What about the Kd [6] of the same binder?
A: 0.93 nM

Q: What about the koff [6] of the same binder?
A: 0.00054 s⁻¹

Q: What about the kon [6] of the same binder?
A: 578000 M⁻¹ s⁻¹

Q: What about the Kd [7] of the same binder?
A: 61.4 nM

Q: And the koff [7]?
A: 0.0299 s⁻¹

Q: And the kon [7]?
A: 487000 M⁻¹ s⁻¹

Q: What about the Kd [8] of the same binder?
A: 90.9 nM

Q: And the koff [8]?
A: 0.022 s⁻¹

Q: And the kon [8]?
A: 242000 M⁻¹ s⁻¹
